In article PMC3735781 (Journal of the American Chemical Society, 2013):

Columns and labels:
Experiment in all cases: HPLC steady-state kinetics, amide hydrolysis at lactyl moiety
[1] = test system: CC(=O)N[C@H]1[C@@H]2OC[C@@H](O2)[C@@H](O)[C@@H]1O[C@H](C)C(=O)N[C@@H](C)C(=O)N[C@H](CCC(=O)N[C@@H](CCC[C@@H](N)C(=O)O)C(=O)N[C@H](C)C(=O)O)C(=O)O; type: biochemical, Pseudomonas aeruginosa; details: 25 °C (Figure 2 reaction)
AmpDh3 = biological target: T1, AmpDh3 (Pseudomonas aeruginosa, UniProt Q9I5D1); type: biochemical; details: 100 μM ZnCl2
T1 sequence (Q9I5D1 1-255): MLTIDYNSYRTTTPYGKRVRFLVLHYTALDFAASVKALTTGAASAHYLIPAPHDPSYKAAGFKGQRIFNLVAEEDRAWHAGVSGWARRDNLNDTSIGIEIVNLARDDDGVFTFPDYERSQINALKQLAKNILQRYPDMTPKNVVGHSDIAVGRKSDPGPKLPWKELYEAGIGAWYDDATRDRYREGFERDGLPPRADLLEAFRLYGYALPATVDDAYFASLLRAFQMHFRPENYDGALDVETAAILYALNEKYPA

AmpDh2 = biological target: T2, AmpDh2 (Pseudomonas aeruginosa, UniProt Q9HT86); type: biochemical; details: 100 μM ZnCl2
T2 sequence (Q9HT86 18-259): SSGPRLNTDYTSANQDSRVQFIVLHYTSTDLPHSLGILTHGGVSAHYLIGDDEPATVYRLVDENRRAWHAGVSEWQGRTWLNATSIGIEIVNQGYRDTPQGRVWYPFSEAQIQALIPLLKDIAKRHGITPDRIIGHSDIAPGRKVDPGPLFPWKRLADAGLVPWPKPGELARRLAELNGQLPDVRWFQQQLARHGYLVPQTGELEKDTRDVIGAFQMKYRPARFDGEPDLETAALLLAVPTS

[2] = substrate: CC(=O)N[C@H]1[C@@H]2OC[C@@H](O2)[C@@H](O)[C@@H]1O[C@H](C)C(=O)N[C@@H](C)C(=O)N[C@H](CCC(=O)N[C@@H](CCC[C@@H](N)C(=O)O)C(=O)N[C@H](C)C(=O)O)C(=O)O; type: biochemical, Pseudomonas aeruginosa; details: 100 μM ZnCl2

Molecule: AmpD (Pseudomonas aeruginosa PAO1)
- Km [1]: 1200 ± 300 µM
- kcat [1]: 39.8 ± 3.1 s⁻¹
- kcat/Km [1]: 33200 ± 7500 M⁻¹ s⁻¹

Molecule: muramyl tetrapeptide 8 [compound 8]
- Km (AmpDh3): 1400 ± 200 µM
- Km (AmpDh2): 1800 ± 300 µM

B1: AmpDh3 (Pseudomonas aeruginosa PAO1) (protein)
chain: MLTIDYNSYRTTTPYGKRVRFLVLHYTALDFAASVKALTTGAASAHYLIPAPHDPSYKAAGFKGQRIFNLVAEEDRAWHAGVSGWARRDNLNDTSIGIEIVNLARDDDGVFTFPDYERSQINALKQLAKNILQRYPDMTPKNVVGHSDIAVGRKSDPGPKLPWKELYEAGIGAWYDDATRDRYREGFERDGLPPRADLLEAFRLYGYALPATVDDAYFASLLRAFQMHFRPENYDGALDVETAAILYALNEKYPA
- Km [2]: 4500 ± 600 µM
- kcat [2]: 70.6 ± 6.6 s⁻¹
- kcat/Km [2]: 15700 ± 1900 M⁻¹ s⁻¹
